Experimental data as given in US20230357420A1 (VILLARIS THERAPEUTICS, published 2023).
Like-named read-outs stand apart in the source and are kept apart here.

What was measured:
Human CD122 [1] = target: T1, Human CD122 (human, UniProt P14784 27-551); test: flow cytometry (FACS) on huIL15Rβ-transfected CHO-K1 cells, anti-human IgG-FITC, GeoMFI
T1 construct: also called hCD122; IL2RB
T1 sequence: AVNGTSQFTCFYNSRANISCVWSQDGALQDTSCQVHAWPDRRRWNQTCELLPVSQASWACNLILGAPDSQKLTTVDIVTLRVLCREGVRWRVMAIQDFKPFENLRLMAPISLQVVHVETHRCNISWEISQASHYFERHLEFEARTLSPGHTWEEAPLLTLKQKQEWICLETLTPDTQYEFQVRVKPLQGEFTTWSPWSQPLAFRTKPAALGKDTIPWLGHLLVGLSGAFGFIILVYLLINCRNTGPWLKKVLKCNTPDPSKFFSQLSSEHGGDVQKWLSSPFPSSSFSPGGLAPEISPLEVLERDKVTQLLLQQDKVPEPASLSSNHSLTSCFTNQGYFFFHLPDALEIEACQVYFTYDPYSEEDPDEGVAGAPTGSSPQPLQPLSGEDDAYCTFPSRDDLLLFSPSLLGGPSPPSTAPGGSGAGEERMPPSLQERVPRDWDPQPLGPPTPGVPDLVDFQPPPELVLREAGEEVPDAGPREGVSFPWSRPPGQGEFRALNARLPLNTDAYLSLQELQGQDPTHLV
Method: (§1) Purified IgGs were tested in FACs for binding to human and rhesus CD122 expressed on CHO-K1 stable cell lines and CHO-K1 wild-type cells. The IgG samples were titrated in three-fold serial dilutions starting at 500 nM to […]. Binding of IgGs was detected with a mouse anti-human IgG conjugated to FITC. Results were analyzed by examining the Mean Fluorescence Intensity (MFI) of 10000 cells per sample in the BL-1 channel detector of a flow cytometer (AttuneTM NxT Acoustic Focusing Cytometer, Invitrogen/ ThermoFisher Scientific).

Human CD122 [2] = target: T1, Human CD122; test: as above; remark: listed apart in the source
Method: as §1

Rhesus CD122 [3] = target: T2, Rhesus CD122 (rhesus monkey, UniProt Q38J85 27-551 (cynomolgus entry)); test: flow cytometry (FACS) on rhIL15Rβ-transfected CHO-K1 cells, anti-human IgG-FITC, GeoMFI
T2 construct: also called rhCD122 on cells
T2 sequence: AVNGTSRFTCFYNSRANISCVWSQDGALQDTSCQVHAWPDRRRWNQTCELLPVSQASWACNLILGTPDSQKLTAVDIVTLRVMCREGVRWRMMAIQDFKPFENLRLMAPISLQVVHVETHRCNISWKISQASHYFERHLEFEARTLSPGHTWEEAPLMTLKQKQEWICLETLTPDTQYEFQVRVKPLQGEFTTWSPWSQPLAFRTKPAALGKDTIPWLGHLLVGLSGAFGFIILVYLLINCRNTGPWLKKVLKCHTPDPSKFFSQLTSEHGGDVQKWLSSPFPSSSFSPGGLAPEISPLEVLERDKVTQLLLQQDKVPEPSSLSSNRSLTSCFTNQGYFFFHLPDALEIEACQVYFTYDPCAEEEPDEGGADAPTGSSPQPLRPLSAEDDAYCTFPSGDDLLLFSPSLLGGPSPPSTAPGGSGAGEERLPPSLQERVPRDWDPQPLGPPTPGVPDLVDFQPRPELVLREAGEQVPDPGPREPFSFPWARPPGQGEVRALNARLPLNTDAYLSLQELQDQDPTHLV
Method: as §1

Rhesus CD122 [4] = target: T2, Rhesus CD122; test: as above; remark: listed apart in the source
Method: as §1

CILP2 = target: T3, CILP2 (human, UniProt Q8IUL8 21-1156); test: Retrogenix cell microarray
T3 construct: whole, on cells; Secreted protein; tether not described; also called cartilage intermediate layer protein 2 (on transfected cells)
T3 sequence (looked up): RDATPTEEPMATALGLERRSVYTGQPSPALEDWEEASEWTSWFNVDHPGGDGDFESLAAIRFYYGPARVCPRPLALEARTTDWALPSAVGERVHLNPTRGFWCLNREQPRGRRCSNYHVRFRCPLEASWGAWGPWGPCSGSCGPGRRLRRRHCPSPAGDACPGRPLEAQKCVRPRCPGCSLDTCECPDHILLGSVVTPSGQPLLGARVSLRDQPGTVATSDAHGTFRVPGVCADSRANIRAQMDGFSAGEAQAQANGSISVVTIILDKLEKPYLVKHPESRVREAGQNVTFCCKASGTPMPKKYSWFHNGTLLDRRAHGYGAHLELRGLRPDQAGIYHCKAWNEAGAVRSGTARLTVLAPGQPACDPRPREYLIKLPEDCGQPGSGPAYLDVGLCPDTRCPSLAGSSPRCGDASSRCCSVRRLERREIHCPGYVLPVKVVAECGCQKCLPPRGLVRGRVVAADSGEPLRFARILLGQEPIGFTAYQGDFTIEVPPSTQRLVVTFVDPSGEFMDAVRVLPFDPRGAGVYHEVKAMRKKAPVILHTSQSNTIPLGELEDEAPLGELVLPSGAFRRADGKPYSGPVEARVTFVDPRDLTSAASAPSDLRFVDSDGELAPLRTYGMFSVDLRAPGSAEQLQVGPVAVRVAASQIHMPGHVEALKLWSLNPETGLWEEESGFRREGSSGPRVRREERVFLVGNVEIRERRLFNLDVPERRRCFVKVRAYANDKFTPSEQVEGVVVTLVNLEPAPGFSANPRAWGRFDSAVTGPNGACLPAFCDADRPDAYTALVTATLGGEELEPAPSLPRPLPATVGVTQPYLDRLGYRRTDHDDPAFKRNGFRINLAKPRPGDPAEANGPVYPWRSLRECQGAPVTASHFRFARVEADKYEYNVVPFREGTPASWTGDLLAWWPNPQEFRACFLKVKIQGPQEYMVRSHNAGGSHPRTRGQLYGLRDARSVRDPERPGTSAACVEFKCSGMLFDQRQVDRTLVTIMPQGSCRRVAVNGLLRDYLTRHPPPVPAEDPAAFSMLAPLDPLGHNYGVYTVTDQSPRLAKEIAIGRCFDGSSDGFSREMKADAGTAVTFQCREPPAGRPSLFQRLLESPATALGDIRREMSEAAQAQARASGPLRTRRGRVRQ

Neudesin = target: T4, Neudesin (human, UniProt Q9UMX5 32-172); test: Retrogenix cell microarray
T4 construct: whole, on cells; Secreted protein; the tether is not described; also called NENF; neudesin neurotrophic factor (on transfected cells)
T4 sequence (Q9UMX5 32-172): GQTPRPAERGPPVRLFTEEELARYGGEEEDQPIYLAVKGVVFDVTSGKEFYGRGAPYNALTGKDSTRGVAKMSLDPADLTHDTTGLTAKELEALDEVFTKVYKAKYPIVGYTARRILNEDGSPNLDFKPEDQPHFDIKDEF

Human CD122 [5] = target: T1, Human CD122; test: flow cytometry (FACS) on huIL15Rβ-transfected CHO-K1 cells, anti-human IgG-FITC, GeoMFI; remark: listed apart in the source
Method: as §1

EC50 (read off the curve) (Human CD122 [1]): ~900 pM
EC50 (read off the curve) (Human CD122 [2]): ~900 pM
EC50 (read off the curve) (Rhesus CD122 [3]): ~600 pM
EC50 (read off the curve) (Rhesus CD122 [4]): ~700 pM
binding result (CILP2): no binding
binding result (Neudesin): no binding
EC50 (read off the curve) (Human CD122 [5]): ~900 pM
B1: IgG1-MIKβ1 (humanized) (antibody, V domains shown)
VH: EVQLLESGGGLVQPGGSLRLSCAASGFSVTSYGVHWIRQAPGKGLEWLGVIWSGGSTDYNAAFISRLTISKDNSKNTVYFQMNSLQAEDTAIYYCARAGDYNYDGFAYWGQGTLVTVSS
VL: DIVLTQSPSSLSASVGDRVTITCSGSSSVSFMYWYQQRPGKAPRLLIYDTSNLASGVPSRFSGSGSGTSYTFTISSLQPEDIATYYCQQWSTYPLTFGQGTKVEVK
notes: also called VillMab-1; VillMAB-1
